{
  "source": "patent US20230062308A1",
  "about": "“TREATMENT OF CK8 POSITIVE CANCERS IN RELATION WITH K-RAS GENE STATUS” (INTERNATIONAL - DRUG - DEVELOPMENT - BIOTECH, priority 2017, published 2023)",
  "molecules": {"B1": {"name": "HzR022 (D-A10): humanized anti-CK8 monoclonal antibody D-A10; VL SEQ ID NO: 14, VH SEQ ID NO: 15 (antibody, V domains shown)", "VH": "EVQLVESGGGLVQPGGSLRLSCAASGFTFSSYWMSWVRQAPGKGLVWVSDINSDGSSTKYADSVKGRFTISRDNAKNTLYLQMNSLRAEDTAVYYCIAHYSGGGFAYWGQGTLVTVSS", "VL": "DIVMTQAPLSLPVTPGEPASISCRSSKSLLYSNGYNYLYWFLQKPGQSPQLLIYYMSNLASGVPDRFSGSGSGTDFTLKISRVEAEDVGVYYCMQSLEYPFTFGQGTKLEIK", "modifications": "VHHzD-A10; VLHzD-A10"}},
  "key": {"[1]": {"system": "Human HAN larynx cell line BICR18", "test": "In vivo tumour growth, HAN CDX model (larynx cell line BICR18)", "conditions": "BICR18 s.c. in SCID mice; HzR022 (D-A10) 10 mg/kg i.p. BIW × 3; cisplatin 2.5 mg/kg i.p. QW × 3", "experimental": "Human HAN larynx cell line BICR18 was subcutaneously injected in SCID mice, with a concentration of 1.10^6 cells per injection (200 μL). Mice were randomized when the tumours reached a mean volume of about 100 mm^3 for the 9 groups (total 45 mice). […] The endpoint was defined by animal ethics as a tumour diameter of >18 mm, significant weight loss or alteration of animal well-being. In order to assess the effectiveness of the compounds on tumourigenesis, tumour volume was measured two times a week. The size of the primary tumours were measured using calipers and the tumour volume (TV) was extrapolated to a sphere using the formula TV= 4/3π×r^3, by calculating the mean radius from the two measurements. The median and standard deviation were also calculated for each group. Median is preferred to mean in order to exclude the extreme values. MAb treatment was administered by intraperitoneal injection twice a week during three weeks at 10 or 1 mg/kg doses. The cisplatin (Myland) treatment was administered by intraperitoneal injection once per week during three weeks at 1, 2.5 or 5 mg/kg doses. The product was prepared in accordance with the sponsor's guidelines, i.e. diluted in PBS. Mice were sacrificed when the tumours reached a maximum volume of 1600 mm^3. […] The t-test (two-tailed test) was performed on the tumour volume values (mm^3) measured on the day of sacrifice."}, "CK8 [2]": {"molecular_target": "T1, CK8 (Homo sapiens, UniProt P05787)", "T1 sequence (P05787 1-483)": "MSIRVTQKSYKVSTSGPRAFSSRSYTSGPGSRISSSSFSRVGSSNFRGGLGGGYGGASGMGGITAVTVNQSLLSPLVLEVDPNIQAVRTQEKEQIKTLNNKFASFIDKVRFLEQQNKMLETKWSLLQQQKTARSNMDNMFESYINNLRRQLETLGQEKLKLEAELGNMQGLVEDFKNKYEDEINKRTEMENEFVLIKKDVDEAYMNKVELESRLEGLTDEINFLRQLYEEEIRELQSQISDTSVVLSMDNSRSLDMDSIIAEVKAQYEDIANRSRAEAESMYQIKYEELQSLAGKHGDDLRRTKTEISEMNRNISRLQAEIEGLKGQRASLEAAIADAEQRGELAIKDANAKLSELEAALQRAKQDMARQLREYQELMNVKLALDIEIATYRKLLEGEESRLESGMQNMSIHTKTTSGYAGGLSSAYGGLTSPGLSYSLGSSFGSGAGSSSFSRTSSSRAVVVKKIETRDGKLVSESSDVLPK", "test": "Immunohistochemistry staining on Colorectal PDX xenograft models", "assay_type": "binding", "set-up": "from tissue; host or cells: pancreatic cancer PDX tumour tissue (PAN-001, PAN-003, PAN-004, PAN-035); key: 2+ for strong; 1+ for moderate intensity IHC staining", "experimental": "(§1) This example describes methods to investigate on CK8 cellular expression at the cell surface by Immunohistochemistry. The antigen retrieval (AR) was performed following incubation at 95° C. during 30 min in Sodium Citrate (pH6.0). The MAb anti CK8 was incubated 1 hour at room temperature (RT). The secondary antibody as a goat anti human was incubated at RT during 1 hour then with a rabbit polyclonal anti FITC at RT during 30 min.\nAll of CRC PDX models expressed the HzR022 (D-A10) epitope detected by IHC. Different IHC scores were observed as 2+ for strong or 1+ for moderate intensity IHC staining."}, "CK8 [3]": {"molecular_target": "T1, CK8", "test": "Immunohistochemistry staining on Pancreas PDX xenograft models", "assay_type": "binding", "set-up": "from tissue; host or cells: pancreatic cancer PDX tumour tissue (PAN-001, PAN-003, PAN-004, PAN-035)", "conditions": "for HZMR022/D-A10 IHC score: score according to membranous and cytoplasmic intensity", "experimental": "as §1\nFour PC PDX models were evaluated as PAN-001, PAN-003, PAN-004 and PAN-035.\nAll of PC PDX models expressed the HzR022 (D-A10) epitope detected by IHC. The IHC score was determined according the membranous and cytoplasmic intensity."}},
  "data": [
    {"molecule": "B1", "values": [
      {"measurement": "tumour growth control (tumour volume, FIG. 3)", "setting": "[1]", "value": "did trigger tumour growth control"},
      {"measurement": "HzR022 (D-A10) IHC score", "setting": "CK8 [2]; CRC PDX model CR0004", "value": "2+"},
      {"measurement": "HzR022 (D-A10) IHC score", "setting": "CK8 [2]; CRC PDX model CR0012", "value": "2+"},
      {"measurement": "HzR022 (D-A10) IHC score", "setting": "CK8 [2]; CRC PDX model CR0029", "value": "2+"},
      {"measurement": "HzR022 (D-A10) IHC score", "setting": "CK8 [2]; CRC PDX model CR0126", "value": "2+"},
      {"measurement": "HzR022 (D-A10) IHC score", "setting": "CK8 [2]; CRC PDX model CR0196", "value": "2+"},
      {"measurement": "HzR022 (D-A10) IHC score", "setting": "CK8 [2]; CRC PDX model CR0205", "value": "1+"},
      {"measurement": "HzR022 (D-A10) IHC score", "setting": "CK8 [2]; CRC PDX model CR0455", "value": "1+"},
      {"measurement": "HzR022 (D-A10) IHC score", "setting": "CK8 [2]; CRC PDX model CR1530", "value": "2+"},
      {"measurement": "HzR022 (D-A10) IHC score", "setting": "CK8 [2]; CRC PDX model CR3056", "value": "1+"},
      {"measurement": "HzR022 (D-A10) IHC score", "setting": "CK8 [2]; CRC PDX model CR3150", "value": "1+"},
      {"measurement": "HzR022 (D-A10) IHC score", "setting": "CK8 [2]; CRC PDX model CR6254", "value": "2+"},
      {"measurement": "Cytoplasmic Intensity", "setting": "CK8 [3]; PC PDX model PAN-001", "value": 4},
      {"measurement": "Membraneous Intensity", "setting": "CK8 [3]; PC PDX model PAN-001", "value": 4},
      {"measurement": "HZMR022/D-A10 IHC score", "setting": "CK8 [3]; PC PDX model PAN-001", "value": 16},
      {"measurement": "Cytoplasmic Intensity", "setting": "CK8 [3]; PC PDX model PAN-003", "value": 4},
      {"measurement": "Membraneous Intensity", "setting": "CK8 [3]; PC PDX model PAN-003", "value": 4},
      {"measurement": "HZMR022/D-A10 IHC score", "setting": "CK8 [3]; PC PDX model PAN-003", "value": 16},
      {"measurement": "Cytoplasmic Intensity", "setting": "CK8 [3]; PC PDX model PAN-004", "value": 4},
      {"measurement": "Membraneous Intensity", "setting": "CK8 [3]; PC PDX model PAN-004", "value": 4},
      {"measurement": "HZMR022/D-A10 IHC score", "setting": "CK8 [3]; PC PDX model PAN-004", "value": 16},
      {"measurement": "Cytoplasmic Intensity", "setting": "CK8 [3]; PC PDX model PAN-035", "value": 4},
      {"measurement": "Membraneous Intensity", "setting": "CK8 [3]; PC PDX model PAN-035", "value": 4},
      {"measurement": "HZMR022/D-A10 IHC score", "setting": "CK8 [3]; PC PDX model PAN-035", "value": 16},
      {"measurement": "IHC score", "setting": "CK8 [3]; all four PC PDX models (PAN-001, PAN-003, PAN-004, PAN-035), strong to very strong IHC staining", "value": 4}
    ]}
  ]
}
